The text below walks through data of PMC11594477.

The target of this assay is human Flag-tagged RAC2 T108A mutant (human), P15153. Briefly: co-IP; Caki-1 cells transfected with Flag-tagged WT, S86A or T108A RAC2; interaction with NEDD4L quantified relative to WT. To be noted: remark: other sources report otherwise.

B1: Neural precursor cell expressed developmentally down-regulated 4-like (NEDD4L), endogenous, Q96PU5-5 1-955 (enzyme)
chain: MATGLGEPVYGLSEDEGESRILRVKVVSGIDLAKKDIFGASDPYVKLSLYVADENRELALVQTKTIKKTLNPKWNEEFYFRVNPSNHRLLFEVFDENRLTRDDFLGQVDVPLSHLPTEDPTMERPYTFKDFLLRPRSHKSRVKGFLRLKMAYMPKNGGQDEENSDQRDDMEHGWEVVDSNDSASQHQEELPPPPLPPGWEEKVDNLGRTYYVNHNNRTTQWHRPSLMDVSSESDNNIRQINQEAAHRRFRSRRHISEDLEPEPSEGGDVPEPWETISEEVNIAGDSLGLALPPPPASPGSRTSPQELSEELSRRLQITPDSNGEQFSSLIQREPSSRLRSCSVTDAVAEQGHLPPPSVAYVHTTPGLPSGWEERKDAKGRTYYVNHNNRTTTWTRPIMQLAEDGASGSATNSNNHLIEPQIRRPRSLSSPTVTLSAPLEGAKDSPVRRAVKDTLSNPQSPQPSPYNSPKPQHKVTQSFLPPGWEMRIAPNGRPFFIDHNTKTTTWEDPRLKFPVHMRSKTSLNPNDLGPLPPGWEERIHLDGRTFYIDHNSKITQWEDPRLQNPAITGPAVPYSREFKQKYDYFRKKLKKPADIPNRFEMKLHRNNIFEESYRRIMSVKRPDVLKARLWIEFESEKGLDYGGVAREWFFLLSKEMFNPYYGLFEYSATDNYTLQINPNSGLCNEDHLSYFTFIGRVAGLAVFHGKLLDGFFIRPFYKMMLGKQITLNDMESVDSEYYNSLKWILENDPTELDLMFCIDEENFGQTYQVDLKPNGSEIMVTNENKREYIDLVIQWRFVNRVQKQMNAFLEGFTELLPIDLIKIFDENELELLMCGLGDVDVNDWRQHSIYKNGYCPNHPVIQWFWKAVLLMDAEKRIRLLQFVTGTSRVPMNGFAELYGSNGPQLFTIEQWGSPEKLPRAHTCFNRLDLPPYETFEDLREKLLMAVENAQGFEGVD
As for B1, the interaction, percent of the WT level (% of the WT level) was found to be 20.
